Results on one molecule are retold here after PMC5394233, “Structural and functional analysis of the human POT1-TPP1 telomeric complex” (Nature Communications, 2017).

For data set [1], the target named is T1, flPOT1 C591W (Homo sapiens, UniProt Q9NUX5 1-634, C591W).
T1 sequence: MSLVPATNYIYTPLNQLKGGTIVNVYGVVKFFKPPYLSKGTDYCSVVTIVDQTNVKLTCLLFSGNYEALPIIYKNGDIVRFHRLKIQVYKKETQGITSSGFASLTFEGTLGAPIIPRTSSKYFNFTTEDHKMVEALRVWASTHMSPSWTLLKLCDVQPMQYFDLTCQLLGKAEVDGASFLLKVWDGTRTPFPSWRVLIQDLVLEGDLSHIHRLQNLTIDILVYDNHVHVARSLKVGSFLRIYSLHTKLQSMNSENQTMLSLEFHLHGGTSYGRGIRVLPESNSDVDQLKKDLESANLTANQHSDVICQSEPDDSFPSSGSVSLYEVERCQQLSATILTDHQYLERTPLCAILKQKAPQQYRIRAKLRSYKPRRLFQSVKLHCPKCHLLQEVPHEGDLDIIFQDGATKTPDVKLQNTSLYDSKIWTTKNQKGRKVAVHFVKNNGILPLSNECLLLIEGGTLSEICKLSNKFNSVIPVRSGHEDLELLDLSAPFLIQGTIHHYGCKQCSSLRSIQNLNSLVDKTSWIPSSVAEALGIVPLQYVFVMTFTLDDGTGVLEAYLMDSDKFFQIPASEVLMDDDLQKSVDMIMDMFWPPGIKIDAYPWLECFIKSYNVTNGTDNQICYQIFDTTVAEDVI
The experiment in a line: fluorescence polarization; FP: 20 mM Hepes pH 7.5, 100 mM KCl, 2 mM MgCl2, 1 mM EDTA, 2 mM DTT, 1 mg/ml BSA, 5% glycerol, 75 nM polyT50 competitor, 2.5 nM probe, room temperature 30 min. The settings on record: protein: recombinant; tags: N-terminal His6-pMocr, TEV-cleaved; label: 5' 6-FAM; single strand. On the technique in general: In fluorescence polarisation assays a small probe gives low polarisation when free and higher when bound to something large.

Data set [2] addresses flPOT1 Q623H;TPP1(87) (Homo sapiens;Homo sapiens, UniProt Q9NUX5;Q96AP0 1-634;1-458, Q623H|). The description is as above. The settings on record: protein: recombinant;recombinant, tags: N-terminal His6-pMocr, TEV-cleaved;N-terminal His6-MBP, copies: 1;1, label: 5' 6-FAM, single strand.
Data set [3] addresses T2, flPOT1 WT (Homo sapiens, UniProt Q9NUX5 1-634).
T2 sequence: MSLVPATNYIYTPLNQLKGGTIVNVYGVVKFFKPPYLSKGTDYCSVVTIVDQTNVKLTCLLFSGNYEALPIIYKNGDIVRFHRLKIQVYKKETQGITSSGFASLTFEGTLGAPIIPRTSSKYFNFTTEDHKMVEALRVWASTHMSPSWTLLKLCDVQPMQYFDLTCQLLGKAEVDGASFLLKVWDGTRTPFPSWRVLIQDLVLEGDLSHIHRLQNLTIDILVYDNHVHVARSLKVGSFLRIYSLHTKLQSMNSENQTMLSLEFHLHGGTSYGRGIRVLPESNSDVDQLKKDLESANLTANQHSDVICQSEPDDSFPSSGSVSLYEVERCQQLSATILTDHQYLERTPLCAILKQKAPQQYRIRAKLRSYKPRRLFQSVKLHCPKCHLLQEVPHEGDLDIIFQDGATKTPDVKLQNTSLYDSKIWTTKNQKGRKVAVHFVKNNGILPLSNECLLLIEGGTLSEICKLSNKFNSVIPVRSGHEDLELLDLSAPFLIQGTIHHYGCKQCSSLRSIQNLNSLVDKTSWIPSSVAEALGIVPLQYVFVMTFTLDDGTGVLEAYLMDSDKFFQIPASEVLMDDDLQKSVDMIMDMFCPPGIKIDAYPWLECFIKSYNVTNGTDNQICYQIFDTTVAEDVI
The description is as above. The settings on record: protein: recombinant; tags: N-terminal His6-pMocr, TEV-cleaved; label: 5' 6-FAM; single strand.

Data set [4] deals with flPOT1 L343F;TPP1(87) (Homo sapiens;Homo sapiens, UniProt Q9NUX5;Q96AP0 1-634;1-458, L343F|). Briefly: fluorescence polarization; wild-type affinity stated; FP: 20 mM Hepes pH 7.5, 100 mM KCl, 2 mM MgCl2, 1 mM EDTA, 2 mM DTT, 1 mg/ml BSA, 5% glycerol, 75 nM polyT50 competitor, 2.5 nM probe, room temperature 30 min. The settings on record: protein: recombinant;recombinant, tags: N-terminal His6-pMocr, TEV-cleaved;N-terminal His6-MBP, copies: 1;1, label: 5' 6-FAM, single strand.
flPOT1 L343F;TPP1(87), sequence (Q96AP0 whole entry, stated change not applied, one chain of several): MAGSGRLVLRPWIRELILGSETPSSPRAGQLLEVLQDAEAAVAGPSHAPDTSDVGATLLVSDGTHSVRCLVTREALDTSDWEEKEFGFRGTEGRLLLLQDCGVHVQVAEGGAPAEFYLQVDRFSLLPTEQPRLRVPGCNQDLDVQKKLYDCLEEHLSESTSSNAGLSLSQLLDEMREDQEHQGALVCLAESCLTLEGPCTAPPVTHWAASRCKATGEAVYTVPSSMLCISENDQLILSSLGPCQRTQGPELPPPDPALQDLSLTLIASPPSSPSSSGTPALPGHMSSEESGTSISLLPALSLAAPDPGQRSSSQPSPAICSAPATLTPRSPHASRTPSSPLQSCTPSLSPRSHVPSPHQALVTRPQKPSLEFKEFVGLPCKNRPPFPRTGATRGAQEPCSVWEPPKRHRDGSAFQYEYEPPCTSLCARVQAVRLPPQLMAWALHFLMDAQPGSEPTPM

The target in data set [5] is flPOT1 A532P;TPP1(87) (Homo sapiens;Homo sapiens, UniProt Q9NUX5;Q96AP0 1-634;1-458, A532P|). Described as above. The settings on record: protein: recombinant;recombinant, tags: N-terminal His6-pMocr, TEV-cleaved;N-terminal His6-MBP, copies: 1;1, label: 5' 6-FAM, single strand.
flPOT1 A532P;TPP1(87), sequence (Q96AP0 whole entry, stated change not applied, one chain of several): as above
The target of data set [6] is flPOT1 R477T;TPP1(87) (Homo sapiens;Homo sapiens, UniProt Q9NUX5;Q96AP0 1-634;1-458, R477T|). The data set is described as above. The settings on record: protein: recombinant;recombinant, tags: N-terminal His6-pMocr, TEV-cleaved;N-terminal His6-MBP, copies: 1;1, label: 5' 6-FAM, single strand.
flPOT1 R477T;TPP1(87), sequence (Q96AP0 whole entry, stated change not applied, one chain of several): as above

flPOT1 Q623H;TPP1(87), sequence (Q9NUX5 whole entry Q623H, chain 1 of 2): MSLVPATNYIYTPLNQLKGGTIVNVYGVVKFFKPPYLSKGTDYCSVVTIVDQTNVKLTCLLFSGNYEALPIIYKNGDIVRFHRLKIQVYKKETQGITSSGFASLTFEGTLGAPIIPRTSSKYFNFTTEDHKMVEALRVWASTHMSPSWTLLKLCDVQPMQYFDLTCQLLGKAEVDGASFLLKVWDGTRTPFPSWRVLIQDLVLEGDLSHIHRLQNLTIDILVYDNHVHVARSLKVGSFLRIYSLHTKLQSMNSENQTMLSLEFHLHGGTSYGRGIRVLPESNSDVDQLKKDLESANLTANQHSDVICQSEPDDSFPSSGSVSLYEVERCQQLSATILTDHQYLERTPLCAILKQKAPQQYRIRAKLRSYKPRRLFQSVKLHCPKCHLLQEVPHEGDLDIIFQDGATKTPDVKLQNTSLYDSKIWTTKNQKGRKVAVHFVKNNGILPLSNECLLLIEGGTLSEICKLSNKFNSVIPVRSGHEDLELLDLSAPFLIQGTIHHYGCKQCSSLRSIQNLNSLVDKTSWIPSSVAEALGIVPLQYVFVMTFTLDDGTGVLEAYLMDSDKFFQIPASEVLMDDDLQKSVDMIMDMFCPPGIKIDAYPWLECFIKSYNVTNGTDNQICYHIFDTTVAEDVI
flPOT1 Q623H;TPP1(87), sequence (Q96AP0 whole entry, chain 2 of 2): as the sequence (Q96AP0 whole entry, stated change not applied, one chain of several) above

With TTAGGGTTAGGGTTAGGG (ssDNA) [telomeric 18mer (TTAGGG)3], the values for the Kd in data set [1], in data set [2] and in data set [3] were about 20 nM, 8.9 ± 1 nM and about 20 nM, respectively. The binding result in data set [4], in data set [5] and in data set [6] was “binds” each time.

Broadly, the Kd is a measure of binding affinity in units of concentration.
